From patent US20200397860A1, “SLIT AND BONE GROWTH MODULATION” (Cornell University, priority 2018, published 2020) come the findings set out here.

Assay [1] has as its system bone marrow endothelial progenitor outgrowth cells (EPOCs). As to the kind of experiment: Matrigel tube formation assay. The conditions noted are these: for tube formation (tube branch numbers): EPOCs on Matrigel. The class given is cell-based, mouse. As to the method: Mouse bone marrow derived late-stage endothelial progenitor outgrowth cells (EPOCs) were obtained from BioChain (7030031) and cultured in growth medium (BioChain Z7030035) as described previously (Xie et al. 2014). Endothelial cell migration assay was set up in Trans well-24 well plates with 8-um pore filters. Briefly, 1×10^5 cells/well after 1-hour serum starvation were seeded in the upper chamber, then incubated with conditioned medium from osteoblasts and control in the lower chambers for a further 3 h. The cells in the upper surface of each filter were removed with cotton swabs. The cells that migrated into the lower surface were fixed with 4% PFA for 30 min and then stained with crystal violet. The cell numbers were quantified by counting a centered microscope field per each filter (5 wells for each condition). Endothelial cell wound healing assays were conducted in 12-well plates precoated with gelatin (Stemcell Technologies). 3×10^5 cells/well were plated overnight and stimulated with a wound in the form of a single linear scratch made with a yellow pipette tip. After gently washing the well twice, cells were cultured in medium with SLIT3 or vehicle. At 6 and 12 hours after injury, cells were stained by 0.5% crystal violet and photographed. The width of the wound area was quantitatively evaluated using ImageJ (see website at rsb.info.uih.gov/ij/download.html). Endothelial cell proliferation assays were conducted in 96-well plates pre-coated with gelatin (Stemcell Technologies). EPOCs (3×10^4 cells/well) were seeded in the medium with a serial dilution of SLIT3 protein or vehicle in plates. At 0, 24, 48 hours after seeding, cells were incubated with 10-fold diluted Alamar Blue solution (Thermo Fisher) and the supernatant was evaluated with a spectrophotometer (Thermo) (5 wells for each condition). Endothelial cell tube formation assay was conducted in 96-well plates pre-coated with Matrigel (BD). After 1 h serum starvation, EPOCs (3×10^4 cells/well) were seeded in conditioned medium dilution or control medium on polymerized Matrigel in plates. Alter 5 hours incubation at 37° C., the number of tube branches each well was observed and quantified by counting four random fields per well with microscopy (5 wells for each condition).

For assay [2] the test system is unchanged. The assay is described as follows: Endothelial cell wound healing (migration) assay. The class given is cell-based, mouse. As to the method:
(§1) Mouse bone marrow derived late-stage endothelial progenitor outgrowth cells (EPOCs) were obtained from BioChain (7030031) and cultured in growth medium (BioChain Z7030035) as described previously (Xie et al. 2014). Endothelial cell migration assay was set up in Trans well-24 well plates with 8-um pore filters. Briefly, 1×10^5 cells/well after 1-hour serum starvation were seeded in the upper chamber, then incubated with conditioned medium from osteoblasts and control in the lower chambers for a further 3 h. The cells in the upper surface of each filter were removed with cotton swabs. The cells that migrated into the lower surface were fixed with 4% PFA for 30 min and then stained with crystal violet. The cell numbers were quantified by counting a centered microscope field per each filter (5 wells for each condition). […] The width of the wound area was quantitatively evaluated using ImageJ (see website at rsb.info.uih.gov/ij/download.html). […] At 0, 24, 48 hours after seeding, cells were incubated with 10-fold diluted Alamar Blue solution (Thermo Fisher) and the supernatant was evaluated with a spectrophotometer (Thermo) (5 wells for each condition). […] Alter 5 hours incubation at 37° C., the number of tube branches each well was observed and quantified by counting four random fields per well with microscopy (5 wells for each condition).

The test system of assay [3] is bone marrow derived EPOCs. As to the kind of experiment: Alamar blue based proliferation assay. In kind it is cell-based, mouse. The procedure: as §1
On the technique in general: The colour change of resazurin is a common sign of viable cells or microbes.

Assay [4] has as its system bone marrow endothelial cells. The assay is described as follows: Immunoblot of YAP, AKT and ERK phosphorylation after SLIT3 treatment. The class given is cell-based, mouse. The procedure:
Western blot analysis was performed according to a previously described standard protocol. (Greenblatt et al. 2016) Primary antibodies were specific for SLIT3 (1:500; R&D Systems, AF3629), ROBO1 (1:500; Abeam, ab7279), ROBO2 (1:1000; Abcam, ab75014), YAP (1:1,000; Cell Signaling, 4912), p-YAP (1:1,000; Cell signaling, 4911), AKT (1:1,000; Cell Signaling, 4691), p-AKT (1:1,000; Cell Signaling, 4060), ERK (1:1,000; Cell Signaling, 9102), p-ERK (1:1,000; Cell Signaling, 9101) and beta-actin (1:5,000, sc-47778, Santa Cruz) or Hsp90 (1:1000; sc-13119, Santa Cruz). Secondary anti-mouse/rabbit HRP-conjugated antibodies were subsequently applied.
A general note: In western blotting, separated proteins are transferred to a membrane and probed.

Assay [5] deals with human mesenchymal stromal cells. As to the kind of experiment: ALP activity assay after 6 days of osteogenic culture. The class given is cell-based. The settings on record: different doses. As to the method: Primary calvarial osteoblasts were isolated from five-day-old mice by triple collagenase/dispase II digestion. Cells were cultured in α-MEM medium (Gibco) containing 10% FBS, 2 mM L-glutamine, 1% penicillin/streptomycin, 1% Hepes, and 1% nonessential amino acids and differentiated with ascorbic acid and β-glycerophosphate. Conditioned medium was collected from culture of primary osteoblasts and stocked at −80° C. hMSCs were cultured and differentiated into osteoblasts using a commercial kit (Cyagen). All cells were routinely tested to be mycoplasma negative.
For staining of extracellular matrix mineralization, cells were fixed with 10% neutral buffered formalin and stained with alizarin red. Mineralization activity was measured by colorimetric analysis. For alkaline phosphatase (ALP) activity, osteoblasts were fixed with 10% neutral formalin buffer and stained with the solution containing Fast Blue and Naphthol (Sigma-Aldrich). Alternatively, osteoblasts were incubated with 10-fold diluted Alamar Blue solution, washed, and incubated with a solution containing 6.5 mM Na2CO3, 18.5 mM NaHCO3, 2 mM MgCl2, and phosphatase substrate (Sigma-Aldrich). ALP activity was measured by a spectrophotometer (Thermo).

Assay [6] has as its system murine ovariectomy (OVX) model of postmenopausal osteoporosis. As to the kind of experiment: Ovariectomy (OVX) induced bone loss, prophylactic model. In kind it is in vivo, mouse. As to the method:
Micro-CT (μCT) analysis was conducted on a Scanco Medical μCT 35 system at the Citigroup Biomedical Imaging Core using the previously described parameters. (Shim et al. 2013). μCT analysis was performed by an investigator blinded to the genotypes of the animals under analysis.
For histomorphometry, mice were injected with calcein (25 mg/kg, Sigma), and undecalcified sections of the lumbar vertebrae were stained using von Kossa and TRAP as described by Fukuda et al. (2013). Static and dynamic histomorphometric analysis was performed with using the Osteomeasure Analysis System (Osteometrics) following standard nomenclature as described (Dempster et al. 2013). Bone volume/total volume (BV/TV), bone formation rate/bone surface (BFR/BS, μm^3 […] yr^−1), mineral apposition rate (MM, um Day^−1), osteoblast surface/bone surface (Ob.S/BS, %) and osteoclast number/bone perimeter (No. OC/Bpm) were analyzed.
For the prophylactic model, 12-week-old female mice (JAX) were anesthetized and bilaterally ovariectomized or sham operated. Ovariectomized mice were given twice weekly intravenous injections of 1 mg per kg body weight of SLITS or vehicle or daily subcutaneous (sc) injections of 80 ug/kg PTH (1-34) for 6 weeks starting 2 weeks after ovariectomy. […] All mice were then randomly assigned to one of four groups: Sham, OVX+vehicle, OVX+SLITS and OVX+PTH. Three days after the last injection, all of the mice were euthanized and subjected to bone analysis as described earlier.

Assay [7] has the same test system. As to the kind of experiment: Ovariectomy (OVX) induced bone loss, therapeutic model after osteopenia onset. The class given is in vivo, mouse.
Where [8] appears, read: EPOCs transduced with Robo1 shRNA.
[9] abbreviates: treatment initiated two weeks after OVX.
Setting [10] is: treatment initiated eight weeks after OVX.

Entries after “also recorded” stand apart in the source; their conditions may differ.

B1: SLIT3: SLIT3 recombinant protein (R&D); secreted ligand of ROBO receptors (protein, UniProt O75094 34-1523, looked up)
Slit homolog 3 protein: CPTKCTCSAASVDCHGLGLRAVPRGIPRNAERLDLDRNNITRITKMDFAGLKNLRVLHLEDNQVSVIERGAFQDLKQLERLRLNKNKLQVLPELLFQSTPKLTRLDLSENQIQGIPRKAFRGITDVKNLQLDNNHISCIEDGAFRALRDLEILTLNNNNISRILVTSFNHMPKIRTLRLHSNHLYCDCHLAWLSDWLRQRRTVGQFTLCMAPVHLRGFNVADVQKKEYVCPAPHSEPPSCNANSISCPSPCTCSNNIVDCRGKGLMEIPANLPEGIVEIRLEQNSIKAIPAGAFTQYKKLKRIDISKNQISDIAPDAFQGLKSLTSLVLYGNKITEIVKGLFDGLVSLQLLLLNANKINCLRVNTFQDLQNLNLLSLYDNKLQTISKGLFAPLQSIQTLHLAQNPFVCDCHLKWLADYLQDNPIETSGARCSSPRRLANKRISQIKSKKFRCSGSEDYRSRFSSECFMDLVCPEKCRCEGTIVDCSNQKLVRIPSHLPEYVTDLRLNDNEVSVLEATGIFKKLPNLRKINLSNNKIKEVREGAFDGAASVQELMLTGNQLETVHGRVFRGLSGLKTLMLRSNLIGCVSNDTFAGLSSVRLLSLYDNRITTITPGAFTTLVSLSTINLLSNPFNCNCHLAWLGKWLRKRRIVSGNPRCQKPFFLKEIPIQDVAIQDFTCDGNEESSCQLSPRCPEQCTCMETVVRCSNKGLRALPRGMPKDVTELYLEGNHLTAVPRELSALRHLTLIDLSNNSISMLTNYTFSNMSHLSTLILSYNRLRCIPVHAFNGLRSLRVLTLHGNDISSVPEGSFNDLTSLSHLALGTNPLHCDCSLRWLSEWVKAGYKEPGIARCSSPEPMADRLLLTTPTHRFQCKGPVDINIVAKCNACLSSPCKNNGTCTQDPVELYRCACPYSYKGKDCTVPINTCIQNPCQHGGTCHLSDSHKDGFSCSCPLGFEGQRCEINPDDCEDNDCENNATCVDGINNYVCICPPNYTGELCDEVIDHCVPELNLCQHEAKCIPLDKGFSCECVPGYSGKLCETDNDDCVAHKCRHGAQCVDTINGYTCTCPQGFSGPFCEHPPPMVLLQTSPCDQYECQNGAQCIVVQQEPTCRCPPGFAGPRCEKLITVNFVGKDSYVELASAKVRPQANISLQVATDKDNGILLYKGDNDPLALELYQGHVRLVYDSLSSPPTTVYSVETVNDGQFHSVELVTLNQTLNLVVDKGTPKSLGKLQKQPAVGINSPLYLGGIPTSTGLSALRQGTDRPLGGFHGCIHEVRINNELQDFKALPPQSLGVSPGCKSCTVCKHGLCRSVEKDSVVCECRPGWTGPLCDQEARDPCLGHRCHHGKCVATGTSYMCKCAEGYGGDLCDNKNDSANACSAFKCHHGQCHISDQGEPYCLCQPGFSGEHCQQENPCLGQVVREVIRRQKGYASCATASKVPIMECRGGCGPQCCQPTRSKRRKYVFQCTDGSSFVEEVERHLECGCLACS
In the case of B1, in assay [1], the “tube formation (tube branch numbers)” value was “enhanced”. Also, the “tube formation (tube branch numbers)” value in assay [1] (listed as Slit3) is given as “increases with increased Slit3”. The “tube formation capacity in response to ligand after Robo1 knockdown” value in assay [1] (setting [8]) is recorded as “impaired their response”. For the same molecule, the “ability to induce tube formation after shRNA-mediated knockdown of YAP” value in assay [1] (EPOCs transduced with YAP shRNA) was “significantly reduced the ability”. For the same molecule, in assay [2], the migration result was “enhanced migration”. Besides, the proliferation result in assay [3] is “modestly increased the proliferation”. Moreover, the “phosphorylation of YAP in response to ligand after Robo1 knockdown” value in assay [4] (setting [8]) is on record as “impaired their response”. Besides, in assay [4] (mouse EPOCs after serum starvation), the “signaling pathways downstream of SLIT3 (YAP, AKT, ERK phosphorylation)” value was “induces activation of Hippo and ERK MAPK pathway signaling”. The “osteoblast activation / differentiation (ALP activity)” value in assay [5] is on record as “did not enhance osteoblast activation; also recorded: does not directly regulate osteoblast differentiation or activity”. In addition, the “OVX-induced bone loss (micro-CT)” value in assay [6] (IV twice weekly initiated two weeks after OVX) is given as “significantly countered OVX-induced bone loss; also recorded: comparable to the effects of PTH treatment; also recorded: preventive effects”. Besides, in assay [6] (L3 vertebrae), the “endosteal CD31hiEMCNhi endothelium after OVX” value is “reversed the attenuation” and the endosteal bone formation result is listed as “rescued”. Also, the “amounts of CD31hiEMCNhi vasculature in vivo” value in assay [6] (treatment for six weeks in vivo) was “increase amounts”. In assay [6] (setting [9]), the cortical thickness result was “increased” and the “trabecular BV/TV” value was “increased”. In addition, the “bone loss after onset of OVX-induced osteopenia” value in assay [7] (IV twice weekly initiated eight weeks after OVX) is listed as “significantly reversed bone loss; also recorded: therapeutic effects”. Also, in assay [7] (setting [10]), the cortical thickness entry was “increased” and the “trabecular BV/TV” value is “increased”. In addition, the CD31hiEMCNhi endothelial cells entry in assay [7] (treatment initiated eight weeks after OVX, femur) is given as “significantly increased”.
